Assays:
GST-AP2IV-4 (AP2 domain) [1] = molecular target: T1, GST-AP2IV-4 (AP2 domain) (Toxoplasma gondii, UniProt S8FCP8 782-854); assay: EMSA; 50 ng protein, 20 fmol probe; EMSA: 20 fmol probe, 50 ng protein, 6% PAGE, LightShift Chemiluminescent EMSA kit; buffer, salt, pH and temperature not stated; details: protein: recombinant; tags: GST (N-terminal, pGEX4T3); label: 5'-biotin; blunt
GST-AP2IV-4 (AP2 domain) [2] = molecular target: T1, GST-AP2IV-4 (AP2 domain); assay: competition; 300x excess unlabeled against N1; EMSA: 20 fmol probe, 50 ng protein, 6% PAGE, LightShift Chemiluminescent EMSA kit; buffer, salt, pH and temperature not stated; details: protein: recombinant; tags: GST (N-terminal, pGEX4T3); label: none; blunt
GST-AP2IV-4 (AP2 domain) [3] = molecular target: T1, GST-AP2IV-4 (AP2 domain); assay: competition; 300x excess unlabeled against N1; did not compete; EMSA: 20 fmol probe, 50 ng protein, 6% PAGE, LightShift Chemiluminescent EMSA kit; buffer, salt, pH and temperature not stated; details: protein: recombinant; tags: GST (N-terminal, pGEX4T3); label: none; blunt

B1: PBM motif validation probe (WT, 59 bp) (dsDNA)
DNA 1: TTTGTAATATACGCTCCACCGCGTGCACCCCCCTCGACATGCCCCCGTATTGCTGATCG
DNA 2: CGATCAGCAATACGGGGGCATGTCGAGGGGGGTGCACGCGGTGGAGCGTATATTACAAA
binding result (GST-AP2IV-4 (AP2 domain) [1]): binds

B2: PBM motif validation, unlabeled poly(dC) competitor (dsDNA)
DNA 1: B1 DNA 1
DNA 2: B1 DNA 2
binding result (GST-AP2IV-4 (AP2 domain) [2]): binds

B3: PBM scrambled cold competitor (60 bp) (dsDNA)
DNA 1: TACCCTGCCTCTTGTAGTAGTAACGTAAAAGAGGTAACGTGGTCAAATGCGATCAGAGAT
DNA 2: ATCTCTGATCGCATTTGACCACGTTACCTCTTTTACGTTACTACTACAAGAGGCAGGGTA
binding result (GST-AP2IV-4 (AP2 domain) [3]): no binding

Reference: paper PMC5951591, “Transcriptional repression by ApiAP2 factors is central to chronic toxoplasmosis”
